The assay deals with plasminogen (UniProt P00747 20-810). The assay is described as follows: SPR. Particulars: both partners purified.
plasminogen, sequence (P00747 20-810): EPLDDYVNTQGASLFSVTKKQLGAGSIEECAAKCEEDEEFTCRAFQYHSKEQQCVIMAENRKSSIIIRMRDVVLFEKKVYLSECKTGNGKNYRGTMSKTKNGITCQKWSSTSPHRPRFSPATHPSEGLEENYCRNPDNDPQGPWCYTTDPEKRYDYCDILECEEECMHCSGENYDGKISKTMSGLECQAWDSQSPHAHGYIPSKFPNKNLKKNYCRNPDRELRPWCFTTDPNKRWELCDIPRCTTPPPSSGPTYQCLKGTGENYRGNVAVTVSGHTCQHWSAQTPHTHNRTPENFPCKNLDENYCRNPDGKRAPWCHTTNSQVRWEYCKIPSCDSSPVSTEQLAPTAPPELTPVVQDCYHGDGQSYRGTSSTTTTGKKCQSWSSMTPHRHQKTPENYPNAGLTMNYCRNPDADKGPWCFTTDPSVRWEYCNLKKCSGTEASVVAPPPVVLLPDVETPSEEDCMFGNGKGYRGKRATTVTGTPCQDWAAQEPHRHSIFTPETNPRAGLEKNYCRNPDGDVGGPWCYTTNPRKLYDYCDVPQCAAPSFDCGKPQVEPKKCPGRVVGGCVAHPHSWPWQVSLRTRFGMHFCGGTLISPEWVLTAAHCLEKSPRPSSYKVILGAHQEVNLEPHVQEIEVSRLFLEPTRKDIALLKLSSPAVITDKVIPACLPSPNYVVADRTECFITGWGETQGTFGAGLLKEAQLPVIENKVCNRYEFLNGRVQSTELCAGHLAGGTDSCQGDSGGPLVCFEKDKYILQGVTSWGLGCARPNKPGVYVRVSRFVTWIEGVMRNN

B1: Recombinant glyceraldehyde-3-phosphate dehydrogenase (GAPDH) of Mesomycoplasma (Mycoplasma) hyopneumoniae strain 168 (enzyme)
chain: MKKIAINGFGRIGRLALRRLFEVNDENLQVVAINDLTDASVLAHLFKYDSAHGKFNGEVEVLKDNGKNYLKIKGQKILVLSERDPKSLPWGQLGIDLVVECTGFFASKSGASQHLEAGAKKVIISAPAGNDVKTIVYNVNCDTITEDDRILSSASCTTNALAPLVNALDKEFGINHGFMTTIHAYTADQRLQDAPHGDLRRARAAGVNLVPSSTGAAKAIGLVVPSLTGKLDGIAIRVPVITGSFVDLSVELKSNPSIEEINQKMREYANESFAYCDEPIVSSDIIGDRHGSIFDATLTKYIEANGKRLYKLYTWYDNEYSFVSQFVRVIRDFVQK
notes: also called rGAPDH; source: E. coli BL21(DE3), pET-32a, purified (Ni resin FF)
What is called Kd is the equilibrium constant for the complex coming apart. A high value points to a looser complex. Take B1: the affinity, expressed as Kd, was 376 nM. This counts as sub-micromolar.

(Values after PMC10269845, “Hijacking of Host Plasminogen by Mesomycoplasma (Mycoplasma) hyopneumoniae via GAPDH: an Important Virulence Mechanism To Promote Adhesion and Extracellular Matrix Degradation” (Microbiology Spectrum, 2023).)
